Reference: patent US6998260 (PROMEGA, dated 2006)

B1: recombinant human β-I tryptase (from pPIC9-HumTry, expressed in Pichia pastoris) (enzyme)
chain: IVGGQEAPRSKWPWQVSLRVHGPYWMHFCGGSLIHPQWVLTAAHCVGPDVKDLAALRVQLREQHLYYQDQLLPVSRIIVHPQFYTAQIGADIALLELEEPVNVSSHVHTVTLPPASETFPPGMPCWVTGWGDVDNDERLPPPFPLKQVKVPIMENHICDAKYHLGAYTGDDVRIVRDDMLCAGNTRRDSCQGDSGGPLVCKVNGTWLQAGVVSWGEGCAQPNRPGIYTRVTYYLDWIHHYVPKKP
modifications: N-glycosylated at two sites (N102 and N204, as the filing says)
notes: Secreted as a mature monomer that self-assembles into a homotetramer; On the Western blots (SDS-PAGE) it stood as denatured subunits; also called rh β I; R βI tryptase
B2: recombinant human β-II tryptase (from pPIC9-HumTryN102K, expressed in Pichia pastoris) (enzyme)
chain: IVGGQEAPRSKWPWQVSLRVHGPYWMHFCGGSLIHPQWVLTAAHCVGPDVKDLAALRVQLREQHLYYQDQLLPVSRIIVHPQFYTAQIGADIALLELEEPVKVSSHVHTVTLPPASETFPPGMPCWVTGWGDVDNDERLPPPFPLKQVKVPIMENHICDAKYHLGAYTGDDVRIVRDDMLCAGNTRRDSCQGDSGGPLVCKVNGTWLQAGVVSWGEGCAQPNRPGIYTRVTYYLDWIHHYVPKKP
modifications: N-glycosylated at one site
notes: Homotetramer by gel filtration; also called rh β II; R βII tryptase
B3: human β-I tryptase active site mutant S194A (enzyme)
chain: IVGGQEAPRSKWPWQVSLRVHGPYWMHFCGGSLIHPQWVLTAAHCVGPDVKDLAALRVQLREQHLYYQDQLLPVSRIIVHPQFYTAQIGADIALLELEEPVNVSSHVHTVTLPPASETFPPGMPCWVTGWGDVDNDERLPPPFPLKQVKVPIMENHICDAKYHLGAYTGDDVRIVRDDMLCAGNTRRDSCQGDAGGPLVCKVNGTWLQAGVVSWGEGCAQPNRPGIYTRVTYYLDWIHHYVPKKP
notes: also called β-I S194A active site mutant; S194A β-I tryptase active site mutant

Target: the molecule itself
Assay: gel filtration; self-association of subunits into a homotetramer

Protein	binding result
B1	binds
B2	binds
B3	binds
